In the assay the target is T1, Tolloid-like 1 (TLL-1) (Homo sapiens, UniProt O43897).
T1 chain: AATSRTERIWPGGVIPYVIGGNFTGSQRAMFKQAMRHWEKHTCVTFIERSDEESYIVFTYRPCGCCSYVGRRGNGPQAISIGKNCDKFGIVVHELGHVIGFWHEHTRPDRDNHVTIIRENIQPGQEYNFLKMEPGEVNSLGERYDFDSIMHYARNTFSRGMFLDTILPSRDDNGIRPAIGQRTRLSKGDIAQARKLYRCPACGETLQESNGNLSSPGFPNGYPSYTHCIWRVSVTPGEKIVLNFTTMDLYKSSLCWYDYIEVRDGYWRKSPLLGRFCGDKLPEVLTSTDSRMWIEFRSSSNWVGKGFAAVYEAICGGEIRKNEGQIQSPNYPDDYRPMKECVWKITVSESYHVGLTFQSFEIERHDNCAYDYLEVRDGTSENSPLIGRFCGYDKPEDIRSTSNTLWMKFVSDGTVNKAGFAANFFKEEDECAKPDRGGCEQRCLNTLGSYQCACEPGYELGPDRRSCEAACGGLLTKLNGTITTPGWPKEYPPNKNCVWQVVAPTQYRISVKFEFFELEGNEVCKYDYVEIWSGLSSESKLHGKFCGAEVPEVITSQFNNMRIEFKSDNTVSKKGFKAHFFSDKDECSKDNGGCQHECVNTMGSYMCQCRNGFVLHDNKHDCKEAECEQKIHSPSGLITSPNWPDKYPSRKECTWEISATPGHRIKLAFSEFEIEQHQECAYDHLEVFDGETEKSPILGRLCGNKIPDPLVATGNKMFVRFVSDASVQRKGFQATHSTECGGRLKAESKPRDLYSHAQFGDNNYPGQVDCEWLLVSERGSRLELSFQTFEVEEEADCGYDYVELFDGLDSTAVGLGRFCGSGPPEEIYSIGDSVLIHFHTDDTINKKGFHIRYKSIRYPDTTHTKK
Kind of assay: sedimentation equilibrium AUC.

This note sets out measurements from publication PMC3878766 (2010).

B1: Tolloid-like 1 (TLL-1) (protein)
chain: AATSRTERIWPGGVIPYVIGGNFTGSQRAMFKQAMRHWEKHTCVTFIERSDEESYIVFTYRPCGCCSYVGRRGNGPQAISIGKNCDKFGIVVHELGHVIGFWHEHTRPDRDNHVTIIRENIQPGQEYNFLKMEPGEVNSLGERYDFDSIMHYARNTFSRGMFLDTILPSRDDNGIRPAIGQRTRLSKGDIAQARKLYRCPACGETLQESNGNLSSPGFPNGYPSYTHCIWRVSVTPGEKIVLNFTTMDLYKSSLCWYDYIEVRDGYWRKSPLLGRFCGDKLPEVLTSTDSRMWIEFRSSSNWVGKGFAAVYEAICGGEIRKNEGQIQSPNYPDDYRPMKECVWKITVSESYHVGLTFQSFEIERHDNCAYDYLEVRDGTSENSPLIGRFCGYDKPEDIRSTSNTLWMKFVSDGTVNKAGFAANFFKEEDECAKPDRGGCEQRCLNTLGSYQCACEPGYELGPDRRSCEAACGGLLTKLNGTITTPGWPKEYPPNKNCVWQVVAPTQYRISVKFEFFELEGNEVCKYDYVEIWSGLSSESKLHGKFCGAEVPEVITSQFNNMRIEFKSDNTVSKKGFKAHFFSDKDECSKDNGGCQHECVNTMGSYMCQCRNGFVLHDNKHDCKEAECEQKIHSPSGLITSPNWPDKYPSRKECTWEISATPGHRIKLAFSEFEIEQHQECAYDHLEVFDGETEKSPILGRLCGNKIPDPLVATGNKMFVRFVSDASVQRKGFQATHSTECGGRLKAESKPRDLYSHAQFGDNNYPGQVDCEWLLVSERGSRLELSFQTFEVEEEADCGYDYVELFDGLDSTAVGLGRFCGSGPPEEIYSIGDSVLIHFHTDDTINKKGFHIRYKSIRYPDTTHTKK
modifications: Ca2+ (0.5 mM CaCl2), V5-His6 tag
A word on the Kd: it is the concentration at which binding is half-saturated. Low readings indicate a tighter complex, high ones a looser complex. Molecule B1 came in with a Kd of 2 nM.
